± gives the standard deviation of the averaged measurements.
Experiments:
Saccharomyces cerevisiae [1] = assay: protein stability index of tFT-peptide fusion (C-terminal peptide) (PSI (0-1 scale)); higher = more stable (slower turnover); details: genetic background: wild type; temperature: 30 C
Saccharomyces cerevisiae [2] = assay: as above
Experimental: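 MPS profiling in S. cerevisiae of the tFT-X12 degron library: putative degron peptides plus stable controls, 12 aa, fused to the C-terminus of a sfGFP-mCherry timer. Cells are FACS-sorted into 8 mCherry/sfGFP bins and deep-sequenced. PSI runs from 0 (unstable) to 1 (stable). Backgrounds are wild type, das1Δ and doa10Δ at 30 °C, and wild type, das1Δ, cdc34-1 and cdc53-1 at 37 °C; 2-3 technical replicates each.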

[3] = genetic background: cdc34-1, temperature: 37 C
[4] = genetic background: cdc53-1, temperature: 37 C
[5] = genetic background: das1 deletion, temperature: 30 C
[6] = genetic background: das1 deletion, temperature: 37 C
[7] = genetic background: doa10 deletion, temperature: 30 C
[8] = genetic background: wild type, temperature: 30 C
[9] = genetic background: wild type, temperature: 37 C
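Further: PSI is a weighted mean of sequencing reads over stability bins, variants kept only with over 10 reads, mCherry proximal and sfGFP distal, peptide attached via GGGS linker.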

| Sequence | protein stability index (Saccharomyces cerevisiae [1]) | protein stability index (Saccharomyces cerevisiae [2]; [3]) | protein stability index (Saccharomyces cerevisiae [2]; [4]) | protein stability index (Saccharomyces cerevisiae [2]; [5]) | protein stability index (Saccharomyces cerevisiae [2]; [6]) | protein stability index (Saccharomyces cerevisiae [2]; [7]) | protein stability index (Saccharomyces cerevisiae [2]; [8]) | protein stability index (Saccharomyces cerevisiae [2]; [9]) |
| --- | --- | --- | --- | --- | --- | --- | --- | --- |
| ECCKRFCCRFVA | 0.338 ± 0.044 | 0.627 ± 0.038 | 0.6982 ± 0.0042 | 0.644 ± 0.0065 | 0.73 ± 0.018 | 0.231 ± 0.0082 | 0.256 ± 0.021 | 0.4002 ± 0.0022 |
| YHFSLFFPLSLP | 0.482 ± 0.0063 | 0.685 ± 0.022 | 0.73 ± 0.028 | 0.607 ± 0.015 | 0.711 ± 0.0088 | 0.378 ± 0.0088 | 0.383 ± 0.017 | 0.568 ± 0.032 |
| SVLVSVVLFVRS | 0.279 ± 0.0029 | 0.114 ± 0.055 | 0.237 ± 0.021 | 0.176 ± 0.019 | 0.33663 ± 7.1e-05 | 0.126 ± 0.032 | 0.168 ± 0.033 | 0.289 ± 0.026 |
| VCLCVIICSMSV | 0.0535 ± 0.018 | 0.0201 ± 0.00092 | 0.041 ± 0.019 | 0.0324 ± 0.008 | 0.0699 ± 0.011 | 0.0265 ± 0.0033 | 0.0249 ± 0.0073 | 0.0544 ± 0.01 |
| VFWLLVGLGCFS | 0.481 ± 0.012 | 0.561 ± 0.017 | 0.563 ± 0.013 | 0.431 ± 0.025 | 0.572 ± 0.0075 | 0.41 ± 0.033 | 0.417 ± 0.028 | 0.5686 ± 0.0022 |
| KMIVWKESIKRE | 0.535 ± 0.15 | 0.689 ± 0.065 | 0.7388 ± 0.001 | 0.633 ± 0.029 | 0.723 ± 0.015 | 0.63 ± 0.014 | 0.667 ± 0.069 | 0.693 ± 0.022 |
| LLPLLFFFLCLP | 0.4989 ± 0.0038 | 0.592 ± 0.058 | 0.584 ± 0.0088 | 0.495 ± 0.035 | 0.5602 ± 0.0049 | 0.462 ± 0.006 | 0.452 ± 0.02 | 0.529 ± 0.014 |
| SLPVSPLVRLLA | 0.235 ± 0.021 | 0.563 ± 0.017 | 0.599 ± 0.0093 | 0.486 ± 0.026 | 0.611 ± 0.0096 | 0.127 ± 0.015 | 0.138 ± 0.02 | 0.2102 ± 0.0012 |
| LLYYMPELLILT | 0.28 ± 0.018 | 0.152 ± 0.0021 | 0.145 ± 0.028 | 0.208 ± 0.0081 | 0.273 ± 0.0049 | 0.242 ± 0.013 | 0.199 ± 0.025 | 0.264 ± 0.007 |
| KIIKERIRRIKI | 0.243 ± 0.032 | 0.653 ± 0.013 | 0.632 ± 0.1 | 0.591 ± 0.032 | 0.71254 ± 0.0005 | 0.153 ± 0.0034 | 0.181 ± 0.049 | 0.286 ± 0.076 |
| VRSELHINSFIH | 0.53 ± 0.054 | 0.656 ± 0.0076 | 0.767 ± 0.017 | 0.682 ± 0.017 | 0.741 ± 0.017 | 0.499 ± 0.047 | 0.501 ± 0.015 | 0.681 ± 0.025 |
| YPCRLFVRSLLA | 0.32 ± 0.051 | 0.442 ± 0.05 | 0.436 ± 0.031 | 0.369 ± 0.023 | 0.498 ± 0.0098 | 0.205 ± 0.0068 | 0.235 ± 0.022 | 0.375 ± 0.019 |
| LPLHPHRSRYLV | 0.21 ± 0.021 | 0.593 ± 0.033 | 0.691 ± 0.018 | 0.674 ± 0.019 | 0.702 ± 0.031 | 0.101 ± 0.015 | 0.0982 ± 0.0075 | 0.203 ± 0.02 |
| LLVRSFIFPLVY | 0.367 ± 0.034 | 0.3906 ± 0.0039 | 0.428 ± 0.018 | 0.294 ± 0.053 | 0.482 ± 0.018 | 0.282 ± 0.016 | 0.289 ± 0.013 | 0.441 ± 0.012 |
| RIWRLLIIIIKK | 0.325 ± 0.12 | 0.387 ± 0.015 | 0.428 ± 0.11 | 0.236 ± 0.085 | 0.565 ± 0.056 | 0.232 ± 0.023 | 0.259 ± 0.016 | 0.456 ± 0.012 |
| LLYPSKFCITAI | 0.374 ± 0.016 | 0.506 ± 0.024 | 0.559 ± 0.03 | 0.413 ± 0.032 | 0.575 ± 0.016 | 0.248 ± 0.007 | 0.272 ± 0.027 | 0.431 ± 0.0044 |
| RFFFSSFPLLIS | 0.282 ± 0.013 | 0.327 ± 0.049 | 0.2628 ± 0.0026 | 0.349 ± 0.047 | 0.471 ± 0.014 | 0.207 ± 0.0091 | 0.199 ± 0.025 | 0.307 ± 0.016 |
| PVLYSFSLWIHL | 0.361 ± 0.0082 | 0.34 ± 0.049 | 0.441 ± 0.024 | 0.299 ± 0.028 | 0.457 ± 0.011 | 0.2273 ± 0.00038 | 0.255 ± 0.02 | 0.389 ± 0.02 |
| DWTVSYLWVTAL | 0.331 ± 0.015 | 0.534 ± 0.042 | 0.592 ± 0.019 | 0.469 ± 0.025 | 0.599 ± 0.006 | 0.185 ± 0.0044 | 0.208 ± 0.0091 | 0.385 ± 0.02 |
| LWGLVGVCLVLC | 0.169 ± 0.0084 | 0.0679 ± 0.011 | 0.0705 ± 0.004 | 0.176 ± 0.021 | 0.229 ± 0.0061 | 0.135 ± 0.0079 | 0.113 ± 0.016 | 0.134 ± 0.011 |
